The target in this experiment is T1, receptor binding domain (RBD) of the SARS-CoV-2 spike protein (residues 319-541) (SARS-CoV-2, UniProt P0DTC2 319-541).
T1 construct: also called spike RBD protein
As to the kind of experiment: SPR. Particulars: both partners purified.

B1: I54C/K341C (M2) mutant sACE2-Fc (Fc fusion)
chain: QSTIEEQAKTFLDKFNHEAEDLFYQSSLASWNYNTNCTEENVQNMNNAGDKWSAFLKEQSTLAQMYPLQEIQNLTVKLQLQALQQNGSSVLSEDKSKRLNTILNTMSTIYSTGKVCNPDNPQECLLLEPGLNEIMANSLDYNERLWAWESWRSEVGKQLRPLYEEYVVLKNEMARANHYEDYGDYWRGDYEVNGVDGYDYSRGQLIEDVEHTFEEIKPLYEHLHAYVRAKLMNAYPSYISPIGCLPAHLLGDMWGRFWTNLYSLTVPFGQKPNIDVTDAMVDQAWDAQRIFKEAEKFFVSVGLPNMTQGFWENSMLTDPGNVQCAVCHPTAWDLGKGDFRILMCTKVTMDDFLTAHNEMGNIQYDMAYAAQPFLLRNGANEGFHEAVGEIMSLSAATPKHLKSIGLLSPDFQEDNETEINFLLKQALTIVGTLPFTYMLEKWRWMVFKGEIPKDQWMKKWWEMKREIVGVVEPVPHDETYCDPASLFHVSNDYSFIRYYTRTLYQFQFQEALCQAAKHEGPLHKCDISNSTEAGQKLFNMLRLGKSEPWTLALENVVGAKNMNVRPLLNYFEPLFTWLKDQNKNSFVGWSTDWSPYAD
notes: also called M2 sACE2-Fc
As usually defined, the Kd is the concentration at which binding is half-saturated. Low values mean a tighter complex, high ones a looser complex. Turning to B1, the equilibrium dissociation constant (Kd) was 22.1 nM. This counts as double-digit nanomolar.

(Values after PMC11432317, “Disulfide Bond Engineering of Soluble ACE2 for Thermal Stability Enhancement” (International Journal of Molecular Sciences, 2024).)
